Measured values: publication PMC9443943

B1: Transmembrane 4 L six family member 5 (TM4SF5): N138A/N155Q, Gly− (protein)
parent chain: MCTGKCARCVGLSLITLCLVCIVANALLLVPNGETSWTNTNHLSLQVWLMGGFIGGGLMVLCPGIAAVRAGGKGCCGAGCCGNRCRMLRSVFSSAFGVLGAIYCLSVSGAGLRNGPRCLMNGEWGYHFEDTAGAYLLNRTLWDRCEAPPRVVPWNVTLFSLLVAASCLEIVLCGIQLVNATIGVFCGDCRKKQDTPH
B2: Transmembrane 4 L six family member 5 (TM4SF5): N138A (protein)
parent chain: B1 parent chain
B3: Transmembrane 4 L six family member 5 (TM4SF5): N155Q (protein)
parent chain: B1 parent chain

Columns and labels:
[1] = immunoblot of sEVs from transfected Huh7 cells; conditions: glycan lost; control: TM4SF5-Strep WT
[2] = sucrose gradient sEV fractions from SNU449, Strep immunoblot; conditions: glycan lost; control: TM4SF5-WT

| Protein | localisation_or_trafficking [1] | localisation_or_trafficking [2] |
| --- | --- | --- |
| B1 | abolishes | abolishes |
| B2 | decreases |  |
| B3 | no change |  |
